# Data: the nanobody polyreactivity screen of Harvey et al. (2022)
# Assay: yeast display, Sf9 membrane polyspecificity reagent, FACS + sequencing; frameworks hold sequencing errors
# Summary of the method: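 After 36–48 hours of galactose induction, yeast (Saccharomyces cerevisiae BJ5465) displaying a synthetic nanobody library were stained at 4 °C for 1 hour with 10% biotinylated, detergent-solubilized Sf9 membrane reagent. Streptavidin microbeads enriched the stained cells before FACS sorting into low and high (top ~1%) gates on anti-HA and streptavidin fluorescence. Each clone's polyreactivity label reflects its gate of origin.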
row,Sequence,polyreactivity (PSR sort gate)
1,QVQLVESGGGLVQAGGTLRLSCAASGFIFTGYTMGWYRQAPGKERELVARISSGDSTKYADSVKGRFTISRDNAKNTVYLQMNSLKPEDTAVYYCNKRHGTYGSVYYSREGYWGQGTQVTVSS,high polyreactivity
2,QVQLVESGGGLVQAGGTLRLSCAASGFNFASYAMGWYRQAPGKERELVDAITSDGSTNYADSVKGRFTISRDNAKNTVYLQMNSLKPEDTAVYYCAADPAKKYDQNTEYEYWGQGTQVTLSS,low polyreactivity
3,QVQLVESGGGLVQAGGTLRLSCAASGGIFLYYAMGWYRQAPGKERELVATISSGGSTKYADSVKGRFTISRDNAMNTVYLQMNSLKPEDTAVYYCNKVFPNLYIYVVRGLIEMDYWGQGTQVTVSS,low polyreactivity
4,QVQLVESGGGLVQAGGTLRLSCAASGITFVQYAMGWYRQAPGKETELVASITRRGGSTYYADSVKGRFTISRDNAKNTVYLQMNSLKQEDTAVYYCAARWSAWRGYIFDYWGQGTQVTVSS,high polyreactivity
5,QVQLVESGGGLVQAGGTLRLSCAASGITFWYYARGWYRPAPGKERELVAVISYSGGIKSYADSVKGRFTISRENAKNTVNLQMNSMKPEDTAVFYCYTLYGRFKAKVYKYGSWGQGTQVTVSS,high polyreactivity
6,QVQLVESGGGLVQAGGTLRLSCAASGLIFDANAMGWYRQAPGTERELVAAITGSGGRTYYADSVKGRFTISRDIAKHTVYLQMNSLKPEDTAVYYCAASSKRKYLYNYWGQGTQVTVSS,high polyreactivity
7,QVQLVESGGGLVQAGGTLRLSCAASGPILSRNAMAWYRQAPGKERELVAAISRSGGSTYYADSVKGRFTISRDNAKNTVYFQMNSLKPEDTAVYYSATRYMGRLDYWGQGTQVTVSS,high polyreactivity
8,QVQLVESGGGLVQAGGTLRLSCAASGRIFSDYAMGWYRQAPGKEREFVAAISSSGGRTYYADSVKGRFTISRDNAKNTVYLQMNSLKPEDTAVYYCNRYNGYYNTGRYGYLGQGTQVTVSS,high polyreactivity
9,QVQLVESGGGLVQAGGTLRLSCAASGRTFKKYTMGWYRQAPGKERELVAVITSGGSTYYADSVKGRFTISRDNAKNTVYLQMNSLKPEDTAVYYCAVKYPELRTWGYYYWGQGTQVTVSS,high polyreactivity
10,QVQLVESGGGLVQAGGTLRLSCAASGRTFPSNAMGWYRQAPGKEREFVASITYSGGRTYYADSVKGRFTISRDNAKNTVYLQMNSLKPEDTAVFYCATARYRYHYYSWGQGTQVTVSS,high polyreactivity
11,QVQLVESGGGLVQAGGTLRLSCAASGRTFRNNAMGWYRQAPGKEWELVAAISLRGGSTYYADSVKGRFTISRDNAKNTVYLLMNSLKPEDTAVYYCATRSRGWIAPPWQGSDGYYYWGQGTQVTVSS,low polyreactivity
12,QVQLVESGGGLVQAGGTLRLSCAASGRTFTSYTMGWYRQAPGKERELVATISFGGGRTYADSVKGRFTISRDNAKNTVYLQMNSLKTEDTAVYYCNAGYYWRLHWWYYYWGQGTQVTVSS,high polyreactivity
13,QVQLVESGGGLVQAGGTLRLSCAASGRTFTYYAMGWSRQAPGKEREIVSAISSTGTSTYYADSVKGRFTISRDNAKNTVYLQMNSLKPEDTAVYYCNARVATYRLHSKFYYWGQGTQVTVSS,high polyreactivity
14,QVQLVESGGGLVQAGGTLRLSCAASGRTLGANALGWYRQAPGKERELVAAITQSGSSTYYADSVKGRFTISRDNAKNTVYLQMNSLKPEDTAVYYCAAEWNVVLAGAVYFRYNYWGQGTQVNVSS,low polyreactivity
15,QVQLVESGGGLVQAGGTLRLSCAASGRTYYPNTMGWYRQAPGKERELVATITRSGGNTYADSVKGRFTISRDNAKNTVYFQMTSLKPEDTAVYYCAARNGRIAWMNYWGQGTQVTVSS,low polyreactivity
16,QVQLVESGGGLVQAGGTLRLSCAASGSIFGRNTMGWYRQAPGKERELVAAINSGGGTYYADSVKGRFTISRDNAKNTVYLQMNSLKPEDTAVYYCAKASRAVRHGDYWGQRTQVTVSS,low polyreactivity

row,Sequence,polyreactivity (PSR sort gate)
1,QVQLVESGGGLVQAGGTLRLSCAASGSIFIPYAMGWYRQEPGKERELVAAISGSGTSTNYADSVKGRFTISRDNAKITVYFQMISLKPEDTAVYYCAKGYSNFYRSDYWGQGTQVTVSS,high polyreactivity
2,QVQLVESGGGLVQAGGTLRLSCAASGSIFPDNTMGWYRQAPGKERELVAAIDGRGVTTYYADSVKGRFTISRDNAKNTVYLHMNSLKPEDTAVYYCAAQPWLRYYYWGQGTQVTVSS,low polyreactivity
3,QVQLVESGGGLVQAGGTLRLSCAASGSILQYNAMGWYRQATVKVSELVAAISRTGGSTYYADSVKGRFTISRDIAMNNLYLQMNSLKPEDTAVYYCNVYLGILYKYDYWGQGNQVTVSS,low polyreactivity
4,QVQLVESGGGLVQAGGTLRLSCAASGSMFDGNAMGWYRQAPGKERELVAAISRRGGSTYYADSVKGRFTISRDNAKNTVYLQKNSLKPEDTAVYYCNAYLSYFDGNYWGEGTQVTVSS,high polyreactivity
5,QVQLVESGGGLVQAGGTLRLSCAASGSTFELNVMGWYRQAPGKERELVAAISSGTSTNYADSVKGRFTISRDNAKYTVYLHLKSVKPVDTAVYYCAADPFTIPTSDFYYWGQVTQVTVSS,low polyreactivity
6,QVQLVESGGGLVQAGGTLRLSCAASGSTFEYYAMGSYRQAPGKEREFVAAISSGPSTTYADSVKGRFTISRDNSKNTVYLQMNSLKPEDTAVYYCARRDGTTQALFGYDYWGQGTQVTVSS,low polyreactivity
7,QVQLVESGGGLVQAGGTLRLSCAASGSTFFVYAMAWYRQEPGKERELVAAISSRGSTYYADSVKGRFTISRDNAKNTVFLQMISLKPEDSAVYFCAAEYTVSYLRMDYWGQGTQVTVSS,low polyreactivity
8,QVQLVESGGGLVQAGGTLRLSCAATGITFDAYVMGWYRQAPGKERELVAGIYSGGSTYYADSVKGRFTISRDNAKNTVYLQMNSLKPEDTAVYYWARENYRFADEPPVSRQIPYDYWGQGTQVTVSS,low polyreactivity
9,QVQLVESGGGLVQAGGTLRLSCAATGSTFPYNAMGWYRQAPGKERELVAAINSAGGTNYADSVKGRFTISRDNAKNTVYLQMNSLKPEDTAVYYCAADGSGYYDWYYYWGQGTQVTVSS,low polyreactivity
10,QVQLVESGGGLVQAGGTLRLSCSASGRTFYSYAMGWYRQAPGKERELVAAISYTGASTFYADSVKGRFTISRDNAKNTVYLQMNSLIPEDTAVYYCAAESQPSYGETDEYWGQGTQVTVSS,high polyreactivity
11,QVQLVESGGGLVQAGGTLRLSGDASGSTFPANAMGWYRQAPGKERELVAAISYRGGSTYYADSVKGRFTISRDNAKNTVYLQMNSLKPEDTAVYYCAATPWYRTRTYDYWGQGTQVTVSS,high polyreactivity
12,QVQLVESGGGLVQAGGTLRLTCAASGFTLTRNAMGWYRQAPGKERELVAAISRSGGSTYYADSVKGRFTISRDNAKNTVYLQMNSLKPEDTAVYYCAADDKYFYPGNGYWGLGTQVTVSS,high polyreactivity
13,QVQLVESGGGLVQAGGTLSLSCAASGGTFSTNTMGWYRQATGKERELVAAITEGTGNTYYADSVKGRFTISRDNAKNTVYLQMNSLKPEDTAVYYCATAYAVYHVEYGYWGQGTQVTVSS,low polyreactivity
14,QVQLVESGGGLVQAGRILRISCAASGFKYAMGWYRQEPGKERELVAAISSGGITSYADSVKGRFTISRDNAKNTVYLQMNSLKPEDTAVYYCAAALRRRRAYFDYWGQGTQVTVSS,high polyreactivity
15,QVQLVESGGGLVQAGRSLPLSCAASGRIIELYGMGWKRPATGKERELVAAMSYGGGSTYYAESVKGRFTISRDNAKNTVYLQMNSLKPEDTAVYYCAARYRTLTKYYWGQGTQVTVSS,low polyreactivity
16,QVQLVESGGGLVQAGRSLRLICAASGRTFSPNTMGWYRQAPGKEREFVAAINRSGGTTYYADSVKGRFTISRDIAKNTVYLQMNSRKPEDTAVYYCAADSIVPIYRGNDDNYWGQGTQVTVSS,low polyreactivity
